Two molecules from patent US20240368279A1 (SHANGHAI SINOBAY BIOTECHNOLOGY, published 2024) can be followed below.

This assay concerns the target human CD47 protein (antigen of the SPR affinity determination) (human, UniProt Q08722 19-139, limits assumed). The assay can be described thus: affinity for a human CD47 protein (method not given; SPR in Example 3).

B1: Hu004-65 antibody (full-length human IgG1, kappa) (antibody, V domains shown)
VH: EVQLVESGGGLVQPGGSLRLSCAASGFTFSGYGMSWVRQAPGKGLEWVATITSGGTYTYYPDSVKGRFTISRDNAKNSLYLQMNSLRAEDTAVYYCARSLAGNAMDYWGQGTLVTVSS
VL: DIQMTQSPSSLSASVGDRVTITCRASQSITKSLNWYQQKPGKAPRLLIRVASTLQSGVPSRFSGSGSGTDFTLTISSLQPEDFATYYCQHSYSFGQGTKLEIT
notes: also called candidate antibody Hu004-65; monoclonal antibody Hu004-65
Usually Kd stands for the constant that tells how readily two partners part at equilibrium. A higher Kd goes with weaker binding. B1 gave a Kd of 146 nM.

B2: Hu004-101 antibody (full-length human IgG1, kappa) (antibody, V domains shown)
VH: EVQLVESGGGLVQPGGSLRLSCAASGFTFSGYGMSWVRQAPGKGLEWVATITSGGTYTYYPDSVKGRFTISRDNAKNSLYLQMNSLRAEDTAVYYCARSLAGNAMDYWGQGTLVTVSS
VL: DIQMTQSPSTLSASVGDRVTITCRASQSISNWLAWYQQKPGEAPKLLIYKASNLESGVPSRFSGSGSGTEFTLTISSLQPDDFATYYCQQFGTFGQGTKVEIK
B2 yielded a Kd of 320 nM.
